Laboratory results: patent US20190359683A1 (published 2019)
Like-named read-outs stand apart in the source and are kept apart here. Each block holds one binder with its values, some of them ahead of it.

Experiments:
[1] = target: T1, recombinant human cardiotrophin-like cytokine factor 1 (CLCF1) (human, UniProt Q9UBD9 28-225); assay: ELISA
T1 chain: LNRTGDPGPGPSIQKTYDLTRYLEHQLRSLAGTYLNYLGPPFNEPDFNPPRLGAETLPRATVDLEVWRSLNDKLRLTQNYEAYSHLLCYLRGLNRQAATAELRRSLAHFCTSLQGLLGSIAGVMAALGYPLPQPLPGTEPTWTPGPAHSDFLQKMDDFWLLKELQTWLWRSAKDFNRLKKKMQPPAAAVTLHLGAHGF

[2] = target: T1, recombinant human cardiotrophin-like …
[3] = target: T1, recombinant human cardiotrophin-like …
1 = assay: yeast display binding; apparent Kd
2 = assay: yeast display binding; apparent Kd
5 = assay: yeast display binding; apparent Kd
3 = assay: yeast display binding; apparent Kd

B1: eCNTFR-Fc (soluble engineered CNTFR fused to mouse IgG2a Fc) (Fc fusion)
chain: QRHSPQEAPHVQYERLGSDVTLPCGTANWDAAVTWRVNGTDLAPDLLNGSQLVLHGLELGHSGLYACFHRDSWHLRHQVLLHVGLPPQEPVLSCRSNTYPKGFYCSWHLPTPTYIPNTFNVTVLHGSKIMVCEKDPALKNRCHIRYMHLFSPIKHNVSISVSNALGHNATAITFDEFTIVKPDPPENVVARPVPSNPRRLEVTWQTPSTWPDPEFFPLKFFLRYRPLILDQWQHVELSDGTAHTIAAAYAGKEYIIQVAAKDNEFGTWSDWSVAAHATPWTEEPRHLTTEAQAAETTTSTTSSLAPPPTTKICDPGELGSRRLEPRGPTIKPCPPCKCPAPNLLGGPSVFIFPPKIKDVLMISLSPIVTCVVVDVSEDDPDVQISWFVNNVEVHTAQTQTHREDYNSTLRVVSALPIQHQDWMSGKEFKCKVNNKDLPAPIERTISKPKGSVRAPQVYVLPPPEEEMTKKQVTLTCMVTDFMPEDIYVEWTNNGKTELNYKNTEPVLDSDGSYFMYSKLRVEKKNWVERNSYSCSVVHEGLHNHHTTKSFSRTPGK
Kd [1]: 0.063 nM

B3: CLCF1 (ligand)
chain: LNRTGDPGPGPSIQKTYDLTRYLEHQLRSLAGTYLNYLGPPFNEPDFNPPRLGAETLPRATVDLEVWRSLNDKLRLTQNYEAYSHLLCYLRGLNRQAATAELRRSLAHFCTSLQGLLGSIAGVMAALGYPLPQPLPGTEPTWTPGPAHSDFLQKMDDFWLLKELQTWLWRSAKDFNRLKKKMQPPAAAVTLHLGAHGF
Kd 1: 4100 nM
Kd 2: 890 nM
Kd 5: 740 nM
Kd 3: 49 nM

The remaining lines, values ahead:

Kd [2]: 19 nM
Kd [3]: 0.019 nM
B2: yeast-displayed CNTFR variant 4 (R110Q, T174P, S237F, I287F) (protein)
chain: VYAQRHSPQEAPHVQYERLGSDVTLPCGTANWDAAVTWRVNGTDLAPDLLNGSQLVLHGLELGHSGLYACFHRDSWHLRHQVLLHVGLPPQEPVLSCRSNTYPKGFYCSWHLPTPTYIPNTFNVTVLHGSKIMVCEKDPALKNRCHIRYMHLFSPIKYKVSISVSNALGHNATAITFDEFTIVKPDPPENVVARPVPSNPRRLEVTWQTPSTWPDPEFFPLKFFLRYRPLILDQWQHVELSDGTAHTITDAYAGKEYIIQVAAKDNEFGTWSDWSVAAHATPWTEEPRHLTTEAQAAETTTSTTSSLAPPPTTKICDPGELGS

Kd [1]: 0.075 nM
B4: eCNTFR-HIS (soluble engineered CNTFR with His-tag) (receptor)
chain: QRHSPQEAPHVQYERLGSDVTLPCGTANWDAAVTWRVNGTDLAPDLLNGSQLVLHGLELGHSGLYACFHRDSWHLRHQVLLHVGLPPQEPVLSCRSNTYPKGFYCSWHLPTPTYIPNTFNVTVLHGSKIMVCEKDPALKNRCHIRYMHLFSPIKHNVSISVSNALGHNATAITFDEFTIVKPDPPENVVARPVPSNPRRLEVTWQTPSTWPDPEFFPLKFFLRYRPLILDQWQHVELSDGTAHTIAAAYAGKEYIIQVAAKDNEFGTWSDWSVAAHATPWTEEPRHLTTEAQAAETTTSTTSSLAPPPTTKICDPGELGS
